Experiments:
Assay in all cases: split reporter
Kre5p = molecular target: T1, Kre5p (S. cerevisiae, UniProt P22023 18-1365)
T1 sequence: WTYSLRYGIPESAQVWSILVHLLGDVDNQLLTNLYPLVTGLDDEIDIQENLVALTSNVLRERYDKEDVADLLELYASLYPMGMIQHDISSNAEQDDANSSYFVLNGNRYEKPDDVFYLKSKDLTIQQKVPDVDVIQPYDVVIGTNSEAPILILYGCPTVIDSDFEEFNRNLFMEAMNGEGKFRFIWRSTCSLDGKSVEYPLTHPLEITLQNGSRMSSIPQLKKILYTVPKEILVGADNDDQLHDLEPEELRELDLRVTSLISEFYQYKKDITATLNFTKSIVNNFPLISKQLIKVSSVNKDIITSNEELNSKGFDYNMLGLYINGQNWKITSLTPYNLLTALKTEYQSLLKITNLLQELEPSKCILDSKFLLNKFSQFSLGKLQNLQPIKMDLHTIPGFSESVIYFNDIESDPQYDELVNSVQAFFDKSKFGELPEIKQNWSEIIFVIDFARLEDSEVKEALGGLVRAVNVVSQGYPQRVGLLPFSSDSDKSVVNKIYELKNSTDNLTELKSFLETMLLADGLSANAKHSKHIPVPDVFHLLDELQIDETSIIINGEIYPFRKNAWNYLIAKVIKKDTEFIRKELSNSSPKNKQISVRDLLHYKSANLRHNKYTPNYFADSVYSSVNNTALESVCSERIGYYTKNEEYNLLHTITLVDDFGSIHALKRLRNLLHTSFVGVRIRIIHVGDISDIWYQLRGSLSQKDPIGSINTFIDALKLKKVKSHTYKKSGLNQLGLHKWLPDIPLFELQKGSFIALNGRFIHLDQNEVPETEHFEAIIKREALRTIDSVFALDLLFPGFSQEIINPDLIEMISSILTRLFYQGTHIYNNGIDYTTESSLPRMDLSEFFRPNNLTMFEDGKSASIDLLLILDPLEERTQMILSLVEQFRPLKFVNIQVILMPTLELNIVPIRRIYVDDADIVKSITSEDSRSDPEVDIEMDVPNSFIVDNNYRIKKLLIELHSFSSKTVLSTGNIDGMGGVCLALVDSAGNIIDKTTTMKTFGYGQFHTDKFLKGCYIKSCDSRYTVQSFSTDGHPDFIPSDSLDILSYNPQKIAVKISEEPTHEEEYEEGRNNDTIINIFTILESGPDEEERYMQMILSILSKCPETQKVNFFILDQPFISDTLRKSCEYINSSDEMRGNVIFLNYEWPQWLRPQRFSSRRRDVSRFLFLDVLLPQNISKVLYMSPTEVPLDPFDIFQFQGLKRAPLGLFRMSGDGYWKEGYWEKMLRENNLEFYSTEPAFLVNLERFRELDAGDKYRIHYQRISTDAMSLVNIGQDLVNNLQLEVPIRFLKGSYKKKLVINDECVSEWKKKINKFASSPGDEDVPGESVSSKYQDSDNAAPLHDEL

Cpr5p = Cpr5p (S. cerevisiae, UniProt P35176 23-225)
Chain of Cpr5p (P35176 23-225): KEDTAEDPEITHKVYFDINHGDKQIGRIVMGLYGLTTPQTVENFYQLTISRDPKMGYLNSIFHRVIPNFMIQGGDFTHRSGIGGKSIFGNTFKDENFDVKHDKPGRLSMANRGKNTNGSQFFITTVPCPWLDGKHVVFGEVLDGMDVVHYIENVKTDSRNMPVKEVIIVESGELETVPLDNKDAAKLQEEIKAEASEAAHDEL

Scj1p = molecular target: T2, Scj1p (S. cerevisiae, UniProt P25303 22-377)
T2 sequence: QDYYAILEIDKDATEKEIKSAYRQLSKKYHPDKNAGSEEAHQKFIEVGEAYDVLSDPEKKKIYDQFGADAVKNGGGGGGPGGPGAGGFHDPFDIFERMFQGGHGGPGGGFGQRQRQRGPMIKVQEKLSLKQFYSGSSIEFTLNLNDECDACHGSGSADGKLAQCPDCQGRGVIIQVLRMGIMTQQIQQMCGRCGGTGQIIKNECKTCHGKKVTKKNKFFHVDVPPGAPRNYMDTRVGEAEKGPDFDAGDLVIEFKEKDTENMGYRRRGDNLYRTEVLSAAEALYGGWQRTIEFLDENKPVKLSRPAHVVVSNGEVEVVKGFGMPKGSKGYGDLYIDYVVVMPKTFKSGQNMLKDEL

Measured: normalized interacting score

B1: Lhs1p (natural protein)
chain: AVLGVDYGQQNIKAIVVSPQAPLELVLTPEAKRKEISGLSIKRLPGYGKDDPNGIERIYGSAVGSLATRFPQNTLLHLKPLLGKSLEDETTVTLYSKQHPGLEMVSTNRSTIAFLVDNVEYPLEELVAMNVQEIANRANSLLKDRDARTEDFVNKMSFTIPDFFDQHQRKALLDASSITTGIEETYLVSEGMSVAVNFVLKQRQFPPGEQQHYIVYDMGSGSIKASMFSILQPEDTTQPVTIEFEGYGYNPHLGGAKFTMDIGSLIENKFLETHPAIRTDELHANPKALAKINQAAEKAKLILSANSEASINIESLINDIDFRTSITRQEFEEFIADSLLDIVKPINDAVTKQFGGYGTNLPEINGVILAGGSSRIPIVQDQLIKLVSEEKVLRNVNADESAVNGVVMRGIKLSNSFKTKPLNVVDRSVNTYSFKLSNESELYDVFTRGSAYPNKTSILTNTTDSIPNNFTIDLFENGKLFETITVNSGAIKNSYSSDKCSSGVAYNITFDLSSDRLFSIQEVNCICQSENDIGNSKQIKNKGSRLAFTSEDVEIKRLSPSERSRLHEHIKLLDKQDKERFQFQENLNVLESNLYDARNLLMDDEVMQNGPKSQVEELSEMVKVYLDWLEDASFDTDPEDIVSRIREIGILKKKIELYMDSAKEPLNSQQFKGMLEEGHKLLQAIETHKNTVEEFLSQFETEFADTIDNVREEFKKIKQPAYVSKALSTWEETLTSFKNSISEIEKFLAKNLFGEDLREHLFEIKLQFDMYRTKLEEKLRLIKSGDESRLNEIKKLHLRNFRLQKRKEEKLKRKLEQEKSRNNNETESTVINSADDKTTIVNDKTTESNPSSEEDILHDEL
> 40%: Kre5p | Cpr5p | Scj1p
